Measurements published in paper doi:10.1101/2023.05.08.539884.
Like-named read-outs stand apart in the source and are kept apart here.

Legend:
[1] = molecular target: UBR4_(4730-5183) (human) (UniProt Q5T4S7); test: ITC
[2] = molecular target: UBR4_(4730-5183) (human) (UniProt Q5T4S7); test: ITC; remark: listed apart in the source

UBR4_(4730-5183) (human), sequence (Q5T4S7 4730-5183): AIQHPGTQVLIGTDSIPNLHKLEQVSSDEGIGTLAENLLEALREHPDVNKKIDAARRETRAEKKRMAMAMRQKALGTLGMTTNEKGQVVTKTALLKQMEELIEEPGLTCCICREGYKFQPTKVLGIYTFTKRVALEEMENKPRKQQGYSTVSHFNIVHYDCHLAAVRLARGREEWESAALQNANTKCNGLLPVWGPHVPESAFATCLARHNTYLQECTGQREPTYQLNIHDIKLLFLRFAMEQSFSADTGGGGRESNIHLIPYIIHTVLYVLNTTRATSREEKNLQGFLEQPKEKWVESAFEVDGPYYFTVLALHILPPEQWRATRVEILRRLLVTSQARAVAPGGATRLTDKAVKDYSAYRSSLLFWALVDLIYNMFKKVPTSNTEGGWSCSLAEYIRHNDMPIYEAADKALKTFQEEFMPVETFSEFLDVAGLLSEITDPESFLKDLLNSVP
UBE2A, sequence (P49459 whole entry): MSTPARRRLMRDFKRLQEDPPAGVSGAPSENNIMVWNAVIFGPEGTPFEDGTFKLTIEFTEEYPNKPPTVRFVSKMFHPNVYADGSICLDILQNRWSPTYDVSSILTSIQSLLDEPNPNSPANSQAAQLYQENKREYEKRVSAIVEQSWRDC

UBE2A (from UniProt P49459 1-152) (enzyme)
dH [1]: -7.37 kcal/mol | stoichiometry N [1]: 0.904 | stoichiometry N [2]: 1
